{"source": "the supplement of paper PMC10567573", "parents": {"B1": {"name": "KRT15 (parent)", "chain": "SNFHINVEESVDGQVVSSHKREI"}, "B2": {"name": "TRIM39 (parent)", "chain": "YPCVLATEGFTSGRHYWEVEVGDK"}}, "data": [{"variants_of": "B1", "assay": "protein stability index of a GFP-peptide fusion (GPS, HEK-293T) (PSI 1-6); higher = more stable", "conditions": "c terminus: native", "values": [{"variant": "SNFHINVEESVDRQVVSSHKREI", "protein stability index": 2.35}, {"variant": "SNFHINVEESQDGQVVSSHKREI", "protein stability index": 2.3}, {"variant": "SNFHINVEESVDGQVQSSHKREI", "protein stability index": 2.62}, {"variant": "SNFHINVEESVDGQVVSSHKFEI", "protein stability index": 4.32}, {"variant": "SNFHINVEESVDGQVVSSHKYEI", "protein stability index": 4.83}, {"variant": "SNFHINVEESVDGQVVSSHKREH", "protein stability index": 4.13}, {"variant": "SNFHINVEESVDGQVVSSHVREI", "protein stability index": 2.4}]}, {"variants_of": "B2", "assay": "protein stability index of a GFP-peptide fusion (GPS, HEK-293T) (PSI 1-6); higher = more stable", "conditions": "c terminus: a fixed tail appended", "values": [{"variant": "GPCVLATEGFTSGRHYWEVEVGDK", "protein stability index": 3.34}, {"variant": "IPCVLATEGFTSGRHYWEVEVGDK", "protein stability index": 2.98}, {"variant": "HPCVLATEGFTSGRHYWEVEVGDK", "protein stability index": 3.55}, {"variant": "SPCVLATEGFTSGRHYWEVEVGDK", "protein stability index": 3.49}, {"variant": "APCVLATEGFTSGRHYWEVEVGDK", "protein stability index": 3.11}, {"variant": "KPCVLATEGFTSGRHYWEVEVGDK", "protein stability index": 3.15}, {"variant": "TPCVLATEGFTSGRHYWEVEVGDK", "protein stability index": 3.78}, {"variant": "DPCVLATEGFTSGRHYWEVEVGDK", "protein stability index": 3.45}, {"variant": "FPCVLATEGFTSGRHYWEVEVGDK", "protein stability index": 1.59}, {"variant": "LPCVLATEGFTSGRHYWEVEVGDK", "protein stability index": 2.96}, {"variant": "NPCVLATEGFTSGRHYWEVEVGDK", "protein stability index": 3.76}, {"variant": "QPCVLATEGFTSGRHYWEVEVGDK", "protein stability index": 3.71}, {"variant": "EPCVLATEGFTSGRHYWEVEVGDK", "protein stability index": 3.65}, {"variant": "VPCVLATEGFTSGRHYWEVEVGDK", "protein stability index": 2.8}, {"variant": "RPCVLATEGFTSGRHYWEVEVGDK", "protein stability index": 3.52}, {"variant": "WPCVLATEGFTSGRHYWEVEVGDK", "protein stability index": 2.74}, {"variant": "CPCVLATEGFTSGRHYWEVEVGDK", "protein stability index": 2.7}, {"variant": "MPCVLATEGFTSGRHYWEVEVGDK", "protein stability index": 3.11}, {"variant": "PPCVLATEGFTSGRHYWEVEVGDK", "protein stability index": 4.24}, {"variant": "YPCVLATEGITSGRHYWEVEVGDK", "protein stability index": 2.15}, {"variant": "YPCVLATEGRTSGRHYWEVEVGDK", "protein stability index": 2.41}, {"variant": "YPCVLATEGKTSGRHYWEVEVGDK", "protein stability index": 1.4}, {"variant": "YPCVLATEGATSGRHYWEVEVGDK", "protein stability index": 1.55}, {"variant": "YPCVLATEGQTSGRHYWEVEVGDK", "protein stability index": 1.63}, {"variant": "YPCVLATEGNTSGRHYWEVEVGDK", "protein stability index": 2.34}, {"variant": "YPCVLATEGMTSGRHYWEVEVGDK", "protein stability index": 2.69}, {"variant": "YPCVLATEGETSGRHYWEVEVGDK", "protein stability index": 2.77}, {"variant": "YPCVLATEGSTSGRHYWEVEVGDK", "protein stability index": 1.9}, {"variant": "YPCVLATEGDTSGRHYWEVEVGDK", "protein stability index": 2.45}, {"variant": "YPCVLATEGVTSGRHYWEVEVGDK", "protein stability index": 1.66}, {"variant": "YPCVLATEGPTSGRHYWEVEVGDK", "protein stability index": 2.12}, {"variant": "YPCVLATEGHTSGRHYWEVEVGDK", "protein stability index": 1.86}, {"variant": "YPCVLATEGWTSGRHYWEVEVGDK", "protein stability index": 1.85}, {"variant": "YPCVLATEGGTSGRHYWEVEVGDK", "protein stability index": 2.48}, {"variant": "YPCVLATEGTTSGRHYWEVEVGDK", "protein stability index": 2.49}, {"variant": "YPCVLATEGYTSGRHYWEVEVGDK", "protein stability index": 2.26}, {"variant": "YPCVLATEGLTSGRHYWEVEVGDK", "protein stability index": 1.86}, {"variant": "YPCVTATEGFTSGRHYWEVEVGDK", "protein stability index": 2.16}, {"variant": "YPCVRATEGFTSGRHYWEVEVGDK", "protein stability index": 1.54}, {"variant": "YPCVGATEGFTSGRHYWEVEVGDK", "protein stability index": 1.87}, {"variant": "YPCVCATEGFTSGRHYWEVEVGDK", "protein stability index": 1.22}, {"variant": "YPCVIATEGFTSGRHYWEVEVGDK", "protein stability index": 1.69}, {"variant": "YPCVSATEGFTSGRHYWEVEVGDK", "protein stability index": 2.26}, {"variant": "YPCVWATEGFTSGRHYWEVEVGDK", "protein stability index": 2.18}, {"variant": "YPCVAATEGFTSGRHYWEVEVGDK", "protein stability index": 1.87}, {"variant": "YPCVDATEGFTSGRHYWEVEVGDK", "protein stability index": 2.17}, {"variant": "YPCVNATEGFTSGRHYWEVEVGDK", "protein stability index": 2.58}, {"variant": "YPCVFATEGFTSGRHYWEVEVGDK", "protein stability index": 1.57}, {"variant": "YPCVEATEGFTSGRHYWEVEVGDK", "protein stability index": 2.34}, {"variant": "YPCVQATEGFTSGRHYWEVEVGDK", "protein stability index": 2.31}, {"variant": "YPCVYATEGFTSGRHYWEVEVGDK", "protein stability index": 2.3}, {"variant": "YPCVHATEGFTSGRHYWEVEVGDK", "protein stability index": 1.36}, {"variant": "YPCVVATEGFTSGRHYWEVEVGDK", "protein stability index": 1.74}, {"variant": "YPCVKATEGFTSGRHYWEVEVGDK", "protein stability index": 2.21}, {"variant": "YPCVPATEGFTSGRHYWEVEVGDK", "protein stability index": 1.56}, {"variant": "YPCVMATEGFTSGRHYWEVEVGDK", "protein stability index": 1.46}, {"variant": "YPCVLATKGFTSGRHYWEVEVGDK", "protein stability index": 2.25}, {"variant": "YPCVLATHGFTSGRHYWEVEVGDK", "protein stability index": 1.93}, {"variant": "YPCVLATDGFTSGRHYWEVEVGDK", "protein stability index": 1.93}, {"variant": "YPCVLATTGFTSGRHYWEVEVGDK", "protein stability index": 2.01}, {"variant": "YPCVLATFGFTSGRHYWEVEVGDK", "protein stability index": 2.06}, {"variant": "YPCVLATQGFTSGRHYWEVEVGDK", "protein stability index": 1.87}, {"variant": "YPCVLATRGFTSGRHYWEVEVGDK", "protein stability index": 1.58}, {"variant": "YPCVLATYGFTSGRHYWEVEVGDK", "protein stability index": 1.35}, {"variant": "YPCVLATGGFTSGRHYWEVEVGDK", "protein stability index": 2.09}, {"variant": "YPCVLATAGFTSGRHYWEVEVGDK", "protein stability index": 1.33}, {"variant": "YPCVLATPGFTSGRHYWEVEVGDK", "protein stability index": 1.62}, {"variant": "YPCVLATMGFTSGRHYWEVEVGDK", "protein stability index": 2.25}, {"variant": "YPCVLATLGFTSGRHYWEVEVGDK", "protein stability index": 1.89}, {"variant": "YPCVLATIGFTSGRHYWEVEVGDK", "protein stability index": 2.16}, {"variant": "YPCVLATNGFTSGRHYWEVEVGDK", "protein stability index": 1.85}, {"variant": "YPCVLATSGFTSGRHYWEVEVGDK", "protein stability index": 1.25}, {"variant": "YPCVLATVGFTSGRHYWEVEVGDK", "protein stability index": 2.14}, {"variant": "YPCVLATEGFASGRHYWEVEVGDK", "protein stability index": 1.97}, {"variant": "YPCVLAGEGFTSGRHYWEVEVGDK", "protein stability index": 1.77}, {"variant": "YPCVLACEGFTSGRHYWEVEVGDK", "protein stability index": 1.84}, {"variant": "YPCVLASEGFTSGRHYWEVEVGDK", "protein stability index": 1.57}, {"variant": "YPCVLAAEGFTSGRHYWEVEVGDK", "protein stability index": 2.27}, {"variant": "YPCVLAFEGFTSGRHYWEVEVGDK", "protein stability index": 2.32}, {"variant": "YPCVLAVEGFTSGRHYWEVEVGDK", "protein stability index": 1.79}, {"variant": "YPCVLALEGFTSGRHYWEVEVGDK", "protein stability index": 1.98}, {"variant": "YPCVLAYEGFTSGRHYWEVEVGDK", "protein stability index": 1.09}, {"variant": "YPCVLAPEGFTSGRHYWEVEVGDK", "protein stability index": 1.75}, {"variant": "YPCVLADEGFTSGRHYWEVEVGDK", "protein stability index": 1.74}, {"variant": "YPCVLAEEGFTSGRHYWEVEVGDK", "protein stability index": 2.16}, {"variant": "YPCVLAQEGFTSGRHYWEVEVGDK", "protein stability index": 1.56}, {"variant": "YPCVLAKEGFTSGRHYWEVEVGDK", "protein stability index": 2.46}]}]}
